The nature of this data set: label from the status in PepcDB records.

As for “MGRKPIKAGAIPRFRVRPQKSGVVYYYYDHGGKPRKETPLGRDYGLAIKRWAELEHAQITPAIAVTFRHVAERYRAEVIPTKAYNTQRMHHVYLNYLLQFFDDPPAPFESIKPVNIRQYLDWRPFKVSANREVALFSHLWNWARSKGITDLPNPCGGIRRNKERGRDVYIDDTTYRAVYQAADQTLRDAMDLAYLTGQRVSDVVSMDERHIVNGALEICQAKTGVKLAIAITGELAVLIKRIFDRKRGMKLRSTRLIVDEKGLGLNWKKLAYRFRKVRAAAGIAKEVFQFRDLRAKAATDKADLAGDIRQAQAQLGHTSVVMTEHYVRKRKGAKVTPTR”, the protein production entry is listed as “failed”.
The entry for “MGRLVSLLPSATDLIFELGLGEQLLGVSHCCDHPGAASLPVLTRSIIGSDLPQAEIDRAVSEAVRAGRALYTVDGPLLDRLRPDLVVTQGVCEVCAVTPGTVAEAVRFLPGCLPAEQVLSLEGKTFAGILADLRALARAAGLEHHHHHH” is “failed”; for “MGRPRVARLDRERIAEAALELVDRDGDFRMPDLARHLNVQVSSIYHHAKGRAAVVELVRHRVVREIDGSAFERLPWDEAFSEWARSYRAAFSRHPTAIRLLATETVRDPGSLSVYHSAAAGLRGAGFPDDHIMAVITAAENFLLGAALDAAAPEVMIEADSTTTDDALTRALAAAPRGPERAEQAFELGLAALLAGFHHLLQECGAVQR” it is “not failed”; for “MGRPRYLAYTRQIAMKSWRKAVVGTQATVGDAIAAIESGSIQIALVLDDQNRLLGVVTDGDVRRGLLRGIPLTGLATDIMNRVPVSAPATLSRDDRLHLMRQKSIKQLPLVDEGGHLVVVETLDELLEPRHYANPVLIMAGGLGERLGALTRDVPKPMLNVGGRPLLETIVRNVVQQGFRNIYISVNYKAETIKDYFADGAAFGANIQYVHETERLGTAGALGLFPAPPDLPMIVTNGDILTTINYGALLDFHNGTPAEATMAVREHKVHVPYGVVSTSDGFLQAIREKPTESWFVSAGIYVIGSSVFGHVAPGVSIDMPTVLERVIAGKGRVAVYPIREYWLDIGRLEDFEQAHAEFHEVFPLEHHHHHH” it is “not failed”.
For “MGRRPSSSHKVSSGKISARPSLHCERGGFMRKTFLAPLTVALCALAAAQTPPPAPIDRPLPAPEPPATATVTRNEPTPQQFTPDKLARLKVPAGFKVSVMATELGNARMLHVMPDGGIYLSRRQNGDIWYLKDVNGDGTIDATERRRVADQLKLVHGIDTRQGKLYAVGEKTIWVMDIARDGTLSVPRVFADNFPDAGQHPARQLGWGPDGYLYASFGATNNDAPTQNPEEATILRIRPDGQVREVYARGLRHTIGFGWHPVTKTFYGMDQGSDWHGDNIPPEELNVIKRGKNYGWPFCYGAKNPDPFVNVANIPGKITKAEYCATTEPSTLNYTAHAAAIALKFYTGTQFPAEFRNDAFVTFRGSWNRNEPSGYEVARVVFDAQNKPEKIEPFVTGFVYQEGGEWKQFGRVAGLAVYTDGSLLFTDDQSGVIYRVQYVGGQK” the value was “failed”; for “MGRTSKDKRDVYYRLAKENGWRARSAFKLLQLDKEFQLFQGVTRAVDLCAAPGSWSQVLSQKIGGQGSGHVVAVDLQAMAPLPGVVQIQGDITQLSTAKEIIQHFKGCPADLVVCDGAPDVTGLHDVDEYMQAQLLLAALNIATHVLKPGGCFVAKIFRGRDVTLLYSQLQVFFSSVLCAKPRSSRNSSIEAFAVCQGYDPPEGFIPDLSKPLLDHSYDPDFNQLDGPTRIIVPFVTCGDLSSYDSDRSYPLDLEGGSEYKYTPPTQPPISPPYQEACTLKRKGQLAKEIRPQDCPISRVDTFPQPLAAPQCHTLLAPEMEDNEMSCSP”, “failed”; for “MGRVIVLGEVLLVGLRFVFVLLIYIFVWHVLRLMYLELGLAPAQSSRKRPVLVVLDAKNGGAKRGESYPLGENISIGRDNHNDIIINDSHVSARHAVITRQGREWKILDLDSTNGTYVNGLRLTGPHSLRPGDKISIGGVTFKVGWEDASRSPFPYRTGAAR”, “failed”.
For “MGSFDDVIGNHQADTAMIVQISADRKEINLVSIPRDSLVDVPQCETSKGTIPAQYNVMFNSIFAGAYKTGGDLSSAASCTLNAVNSLTGLNIQNFIVVDFAGLVKMIDSVGGVDLCIPQNVNDPYTGLNLDKGMHHLDGVAATQYARIRHGIGDGSDTSRTTRQQYLIKQLMSEALSKNLFTDTAQLYQLAKSALKSLNISQGMADTAALAGLAMSLKNFTMTNLQTQTVPVVPAPSDPNRSVWTDEADNLWEKMRAGKPIFDTADSNSGGSSDTSSDNSASSDDSGTTDSNQSDTTAETPDPVTGLITKSDGTLVDPSTGGTVDPDDGSIHDATTGQYIGLADRYLNATVCAVPAKNLEHHHHHH” the value was “not failed”.

For the origin of these results see a protein production outcome set (Wang et al. 2014).
